Each block holds one binder with its values, some of them ahead of it. Square brackets hold non-standard residues; d marks the D form. Ends that are not written are not given here. Orn = NCCC[C@H](N)C(=O)O; Dab = NCC[C@H](N)C(=O)O; Dap = NC[C@H](N)C(=O)O
Molecular target: human Factor IXa (human, UniProt P00740 47-191; P00740 227-461)
Assay: cell-based or functional assay

Binder: RRAPGKLTKLASYDWLFWTGIA-OH [RRAPGKLT-Lys-LASY-Asp-WLFWTGIA-COOH]
EC50 [µM], FXa generation assay: > 10 µM

B1: RRAPGKLT-Asp-LASY-Dap-WLFWTGIA-CONH2 (peptide)
peptide: RRAPGKLTDLASY[Dap]WLFWTGIA-NH2
modifications: N-terminus assumed
SMILES: CC[C@H](C)[C@H](NC(=O)CNC(=O)[C@@H](NC(=O)[C@H](Cc1c[nH]c2ccccc12)NC(=O)[C@H](Cc1ccccc1)NC(=O)[C@H](CC(C)C)NC(=O)[C@H](Cc1c[nH]c2ccccc12)NC(=O)[C@H](CN)NC(=O)[C@H](Cc1ccc(O)cc1)NC(=O)[C@H](CO)NC(=O)[C@H](C)NC(=O)[C@H](CC(C)C)NC(=O)[C@H](CC(=O)O)NC(=O)[C@@H](NC(=O)[C@H](CC(C)C)NC(=O)[C@H](CCCCN)NC(=O)CNC(=O)[C@@H]1CCCN1C(=O)[C@H](C)NC(=O)[C@H](CCCNC(=N)N)NC(=O)[C@@H](N)CCCNC(=N)N)[C@@H](C)O)[C@@H](C)O)C(=O)N[C@@H](C)C(N)=O
EC50 [µM], FXa generation assay: > 1 µM

Binder: RRAPGKLTDLASYKWLFWTGIA-OH [RRAPGKLT-Asp-LASY-Lys-WLFWTGIA-COOH]
EC50 [µM], FXa generation assay: < 0.5 µM

Binder: RRAPGKLTKLASYEWLFWTGIA-OH [RRAPGKLT-Lys-LASY-Glu-WLFWTGIA-COOH]
EC50 [µM], FXa generation assay: < 0.5 µM

B4: RRAPGKLT-Orn-LASY-Asp-WLFWTGIA-COOH (peptide)
peptide: RRAPGKLT[Orn]LASYDWLFWTGIA-OH
modifications: N-terminus assumed
SMILES: CC[C@H](C)[C@H](NC(=O)CNC(=O)[C@@H](NC(=O)[C@H](Cc1c[nH]c2ccccc12)NC(=O)[C@H](Cc1ccccc1)NC(=O)[C@H](CC(C)C)NC(=O)[C@H](Cc1c[nH]c2ccccc12)NC(=O)[C@H](CC(=O)O)NC(=O)[C@H](Cc1ccc(O)cc1)NC(=O)[C@H](CO)NC(=O)[C@H](C)NC(=O)[C@H](CC(C)C)NC(=O)[C@H](CCCN)NC(=O)[C@@H](NC(=O)[C@H](CC(C)C)NC(=O)[C@H](CCCCN)NC(=O)CNC(=O)[C@@H]1CCCN1C(=O)[C@H](C)NC(=O)[C@H](CCCNC(=N)N)NC(=O)[C@@H](N)CCCNC(=N)N)[C@@H](C)O)[C@@H](C)O)C(=O)N[C@@H](C)C(=O)O
EC50 [µM], FXa generation assay: > 1 µM

Binder: RRAPGKLTKLASYDWLFWTGIA-NH2 [RRAPGKLT-Lys-LASY-Asp-WLFWTGIA-CONH2]
EC50 [µM], FXa generation assay: > 1 µM

B5: RRAPGKLT-Dab-LASY-Asp-WLFWTGIA-CONH2 (peptide)
peptide: RRAPGKLT[Dab]LASYDWLFWTGIA-NH2
modifications: N-terminus assumed
SMILES: CC[C@H](C)[C@H](NC(=O)CNC(=O)[C@@H](NC(=O)[C@H](Cc1c[nH]c2ccccc12)NC(=O)[C@H](Cc1ccccc1)NC(=O)[C@H](CC(C)C)NC(=O)[C@H](Cc1c[nH]c2ccccc12)NC(=O)[C@H](CC(=O)O)NC(=O)[C@H](Cc1ccc(O)cc1)NC(=O)[C@H](CO)NC(=O)[C@H](C)NC(=O)[C@H](CC(C)C)NC(=O)[C@H](CCN)NC(=O)[C@@H](NC(=O)[C@H](CC(C)C)NC(=O)[C@H](CCCCN)NC(=O)CNC(=O)[C@@H]1CCCN1C(=O)[C@H](C)NC(=O)[C@H](CCCNC(=N)N)NC(=O)[C@@H](N)CCCNC(=N)N)[C@@H](C)O)[C@@H](C)O)C(=O)N[C@@H](C)C(N)=O
EC50 [µM], FXa generation assay: > 1 µM

Binder: RRAPGKLTKLASYEWLFWTGIA-NH2 [RRAPGKLT-Lys-LASY-Glu-WLFWTGIA-CONH2]
EC50 [µM], FXa generation assay: > 1 µM

B6: RRAPGKLT-Asp-LASY-Orn-WLFWTGIA-CONH2 (peptide)
peptide: RRAPGKLTDLASY[Orn]WLFWTGIA-NH2
modifications: N-terminus assumed
SMILES: CC[C@H](C)[C@H](NC(=O)CNC(=O)[C@@H](NC(=O)[C@H](Cc1c[nH]c2ccccc12)NC(=O)[C@H](Cc1ccccc1)NC(=O)[C@H](CC(C)C)NC(=O)[C@H](Cc1c[nH]c2ccccc12)NC(=O)[C@H](CCCN)NC(=O)[C@H](Cc1ccc(O)cc1)NC(=O)[C@H](CO)NC(=O)[C@H](C)NC(=O)[C@H](CC(C)C)NC(=O)[C@H](CC(=O)O)NC(=O)[C@@H](NC(=O)[C@H](CC(C)C)NC(=O)[C@H](CCCCN)NC(=O)CNC(=O)[C@@H]1CCCN1C(=O)[C@H](C)NC(=O)[C@H](CCCNC(=N)N)NC(=O)[C@@H](N)CCCNC(=N)N)[C@@H](C)O)[C@@H](C)O)C(=O)N[C@@H](C)C(N)=O
EC50 [µM], FXa generation assay: < 0.5 µM

B9: RRAPGKLT-Asp-LASY-Dab-WLFWTGIA-COOH (peptide)
peptide: RRAPGKLTDLASY[Dab]WLFWTGIA-OH
modifications: N-terminus assumed
SMILES: CC[C@H](C)[C@H](NC(=O)CNC(=O)[C@@H](NC(=O)[C@H](Cc1c[nH]c2ccccc12)NC(=O)[C@H](Cc1ccccc1)NC(=O)[C@H](CC(C)C)NC(=O)[C@H](Cc1c[nH]c2ccccc12)NC(=O)[C@H](CCN)NC(=O)[C@H](Cc1ccc(O)cc1)NC(=O)[C@H](CO)NC(=O)[C@H](C)NC(=O)[C@H](CC(C)C)NC(=O)[C@H](CC(=O)O)NC(=O)[C@@H](NC(=O)[C@H](CC(C)C)NC(=O)[C@H](CCCCN)NC(=O)CNC(=O)[C@@H]1CCCN1C(=O)[C@H](C)NC(=O)[C@H](CCCNC(=N)N)NC(=O)[C@@H](N)CCCNC(=N)N)[C@@H](C)O)[C@@H](C)O)C(=O)N[C@@H](C)C(=O)O
EC50 [µM], FXa generation assay: > 10 µM

B10: RRAPGKLT-Orn-LASY-Asp-WLFWTGIA-CONH2 (peptide)
peptide: RRAPGKLT[Orn]LASYDWLFWTGIA-NH2
modifications: N-terminus assumed
SMILES: CC[C@H](C)[C@H](NC(=O)CNC(=O)[C@@H](NC(=O)[C@H](Cc1c[nH]c2ccccc12)NC(=O)[C@H](Cc1ccccc1)NC(=O)[C@H](CC(C)C)NC(=O)[C@H](Cc1c[nH]c2ccccc12)NC(=O)[C@H](CC(=O)O)NC(=O)[C@H](Cc1ccc(O)cc1)NC(=O)[C@H](CO)NC(=O)[C@H](C)NC(=O)[C@H](CC(C)C)NC(=O)[C@H](CCCN)NC(=O)[C@@H](NC(=O)[C@H](CC(C)C)NC(=O)[C@H](CCCCN)NC(=O)CNC(=O)[C@@H]1CCCN1C(=O)[C@H](C)NC(=O)[C@H](CCCNC(=N)N)NC(=O)[C@@H](N)CCCNC(=N)N)[C@@H](C)O)[C@@H](C)O)C(=O)N[C@@H](C)C(N)=O
EC50 [µM], FXa generation assay: > 10 µM

Binder: RRAPGCLTALASYAWLCWTGIA-NH2 (cysteine pairing not given here) [RRAPGCLTALASYAWLCWTGIA-CONH2]
EC50 [µM], FXa generation assay: > 1 µM

Other lines, results leading:

EC50 [µM], FXa generation assay: > 10 µM
B2: RRAPGKLT-Dap-LASY-Asp-WLFWTGIA-COOH (peptide)
peptide: RRAPGKLT[Dap]LASYDWLFWTGIA-OH
modifications: N-terminus assumed
SMILES: CC[C@H](C)[C@H](NC(=O)CNC(=O)[C@@H](NC(=O)[C@H](Cc1c[nH]c2ccccc12)NC(=O)[C@H](Cc1ccccc1)NC(=O)[C@H](CC(C)C)NC(=O)[C@H](Cc1c[nH]c2ccccc12)NC(=O)[C@H](CC(=O)O)NC(=O)[C@H](Cc1ccc(O)cc1)NC(=O)[C@H](CO)NC(=O)[C@H](C)NC(=O)[C@H](CC(C)C)NC(=O)[C@H](CN)NC(=O)[C@@H](NC(=O)[C@H](CC(C)C)NC(=O)[C@H](CCCCN)NC(=O)CNC(=O)[C@@H]1CCCN1C(=O)[C@H](C)NC(=O)[C@H](CCCNC(=N)N)NC(=O)[C@@H](N)CCCNC(=N)N)[C@@H](C)O)[C@@H](C)O)C(=O)N[C@@H](C)C(=O)O

EC50 [µM], FXa generation assay: > 1 µM
Binder: RRAPGKCTALASYAWCFWTGIA-NH2 (cysteine pairing not given here) [RRAPGKCTALASYAWCFWTGIA-CONH2]

EC50 [µM], FXa generation assay: < 0.5 µM
B3: RRAPGKLT-Asp-LASY-Orn-WLFWTGIA-COOH (peptide)
peptide: RRAPGKLTDLASY[Orn]WLFWTGIA-OH
modifications: N-terminus assumed
SMILES: CC[C@H](C)[C@H](NC(=O)CNC(=O)[C@@H](NC(=O)[C@H](Cc1c[nH]c2ccccc12)NC(=O)[C@H](Cc1ccccc1)NC(=O)[C@H](CC(C)C)NC(=O)[C@H](Cc1c[nH]c2ccccc12)NC(=O)[C@H](CCCN)NC(=O)[C@H](Cc1ccc(O)cc1)NC(=O)[C@H](CO)NC(=O)[C@H](C)NC(=O)[C@H](CC(C)C)NC(=O)[C@H](CC(=O)O)NC(=O)[C@@H](NC(=O)[C@H](CC(C)C)NC(=O)[C@H](CCCCN)NC(=O)CNC(=O)[C@@H]1CCCN1C(=O)[C@H](C)NC(=O)[C@H](CCCNC(=N)N)NC(=O)[C@@H](N)CCCNC(=N)N)[C@@H](C)O)[C@@H](C)O)C(=O)N[C@@H](C)C(=O)O

EC50 [µM], FXa generation assay: > 10 µM
B7: RRAPGKLT-Dap-LASY-Asp-WLFWTGIA-CONH2 (peptide)
peptide: RRAPGKLT[Dap]LASYDWLFWTGIA-NH2
modifications: N-terminus assumed
SMILES: CC[C@H](C)[C@H](NC(=O)CNC(=O)[C@@H](NC(=O)[C@H](Cc1c[nH]c2ccccc12)NC(=O)[C@H](Cc1ccccc1)NC(=O)[C@H](CC(C)C)NC(=O)[C@H](Cc1c[nH]c2ccccc12)NC(=O)[C@H](CC(=O)O)NC(=O)[C@H](Cc1ccc(O)cc1)NC(=O)[C@H](CO)NC(=O)[C@H](C)NC(=O)[C@H](CC(C)C)NC(=O)[C@H](CN)NC(=O)[C@@H](NC(=O)[C@H](CC(C)C)NC(=O)[C@H](CCCCN)NC(=O)CNC(=O)[C@@H]1CCCN1C(=O)[C@H](C)NC(=O)[C@H](CCCNC(=N)N)NC(=O)[C@@H](N)CCCNC(=N)N)[C@@H](C)O)[C@@H](C)O)C(=O)N[C@@H](C)C(N)=O

EC50 [µM], FXa generation assay: < 0.5 µM
Binder: RRAPGKLTDLASYKWLFWTGIA-NH2 [RRAPGKLT-Asp-LASY-Lys-WLFWTGIA-CONH2]

EC50 [µM], FXa generation assay: > 1 µM
B8: RRAPGKLT-Asp-LASY-Dap-WLFWTGIA-COOH (peptide)
peptide: RRAPGKLTDLASY[Dap]WLFWTGIA-OH
modifications: N-terminus assumed
SMILES: CC[C@H](C)[C@H](NC(=O)CNC(=O)[C@@H](NC(=O)[C@H](Cc1c[nH]c2ccccc12)NC(=O)[C@H](Cc1ccccc1)NC(=O)[C@H](CC(C)C)NC(=O)[C@H](Cc1c[nH]c2ccccc12)NC(=O)[C@H](CN)NC(=O)[C@H](Cc1ccc(O)cc1)NC(=O)[C@H](CO)NC(=O)[C@H](C)NC(=O)[C@H](CC(C)C)NC(=O)[C@H](CC(=O)O)NC(=O)[C@@H](NC(=O)[C@H](CC(C)C)NC(=O)[C@H](CCCCN)NC(=O)CNC(=O)[C@@H]1CCCN1C(=O)[C@H](C)NC(=O)[C@H](CCCNC(=N)N)NC(=O)[C@@H](N)CCCNC(=N)N)[C@@H](C)O)[C@@H](C)O)C(=O)N[C@@H](C)C(=O)O

Reference: US20140303084A1 (Biogen, published 2014)
